The text below walks through data of article doi:10.1101/2025.10.03.680009.

Assay [1] addresses GST-PreScission protease. Kind of assay: SEC. On the technique in general: In gel filtration, larger molecules generally elute earlier.
Assay [2] deals with GST-TbPEX6 (full-length) (Trypanosoma brucei). Kind of assay: AlphaScreen or HTRF.
Assay [3] deals with tag-free TbPEX6 (Trypanosoma brucei). Kind of assay: SEC.

As for GST-PreScission protease (enzyme), the stoichiometry N in assay [1] stood at 2.
Regarding “Tag-free TbPEX15ΔTM (1-320aa) (domain or fragment)”, the Kd in assay [2] fell in the range of 15.3 to 30.4 nM.
Regarding “His6-TbPEX15ΔTM (1-320aa) (domain or fragment)”, the stoichiometry N in assay [3] was found to be 1. Further, the dissociation constant Kd in assay [2] turned out to be 10.3 nM.

Usually stoichiometry N stands for the number of molecules, sites or subunits per partner or assembly. As usually defined, the Kd is the equilibrium constant for the complex coming apart. Read a high Kd as weaker binding.
